The record followed here is the supplement of paper PMC12764529.

A short description of series [1]: folding stability dG unfold (combined trypsin and chymotrypsin); higher = more stable. In outline:
(§1)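 Designed mini-proteins (under 80 residues, no cysteine) in a PA-tagged cDNA display construct were digested with trypsin and chymotrypsin. Each protease was used at 11 concentrations (threefold dilutions) plus a no-protease condition, followed by sequencing. K50 was inferred by Bayesian fitting of sequencing counts, and unfolding free energy was derived against a sequence-predicted unfolded-state K50 and a shared folded-state K50, per protease or combined. Only designs with AlphaFold2 dimer inter-PAE above 15 were kept.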

A short description of series [2]: folding stability dG unfold from trypsin proteolysis; higher = more stable. In outline: as §1
A short description of series [3]: folding stability dG unfold from chymotrypsin proteolysis; higher = more stable. An outline of the steps:
as §1

± gives the half width of the 95% confidence interval.

Take “SAGGSAGGSAGGGRVELELTFIREDGYAVKVRIEVDEDGNLRIEVEVVKLPPAASPEELSAGGSAGGSAGGS [r10_878_TrROS_Hall]”: the “folding stability dG unfold” value in series [1] was found to be 2.86 ± 0.088 kcal/mol; in series [2], 3.23 ± 0.14 kcal/mol; in series [3], 2.31 ± 0.072 kcal/mol.
On to “SAGGSAGGSAGGGSMLTVKVPETVPEYTSTDPATGKTYNVPPSVPVEVEGSPDSFSILLSAGGSAGGSAGGS [r10_46_JUSTAS]”, for which the “folding stability dG unfold” value in series [1] amounted to 1.01 ± 0.094 kcal/mol; in series [2], 1.21 ± 0.046 kcal/mol; in series [3], 0.842 ± 0.095 kcal/mol.
Take “SAGGSAGGSAGGGSMPVTERIPGSPSSVTTTTFPDGTVTTETTAGPPVTLSPAGGSTLVSAGGSAGGSAGGS [r10_664_JUSTAS]”: the “folding stability dG unfold” value turned out to be 1.08 ± 0.11 kcal/mol in series [1], 0.97 ± 0.073 kcal/mol in series [2] and 1.09 ± 0.058 kcal/mol in series [3].
As for “SAGGSAGGSAGGGSMTLELPLPEWSEEEIEALAEELKKKGLKVKEIERDPESDVVRITVESAGGSAGGSAGG [r7_906_JUSTAS]”, the “folding stability dG unfold” value in series [1] came to 2.15 ± 0.11 kcal/mol; in series [2], 1.79 ± 0.1 kcal/mol; in series [3] it was 2.28 ± 0.078 kcal/mol.
With “SAGGSAGGSAGGGSMTTTTLTFTVPPDVTPEEVRAALEAAGYGDVAVTREGNTWTVTVTSAGGSAGGSAGGS [r10_868_JUSTAS]”, the “folding stability dG unfold” value in series [1] is 2.4 ± 0.1 kcal/mol; in series [2], 1.56 ± 0.049 kcal/mol; in series [3], 2.6 ± 0.039 kcal/mol.
For “SAGGSAGGSAGGGSSGVSYGSVPIVIRDPSGNVVSTLTLRVYPDGTVVLEFPDGSLLLLSAGGSAGGSAGGS [r10_972_JUSTAS]”, in that order: 3.86 ± 0.087 kcal/mol, 3.38 ± 0.081 kcal/mol and 4.11 ± 0.045 kcal/mol.
Consider “SAGGSAGGSAGGGSTTTTTETYPENGLIFTTTTTVFDDGSLSVTTTTSPLPLPPSPFIATSAGGSAGGSAGG [r7_103_JUSTAS]”, for which the “folding stability dG unfold” value in series [1] turned out to be 1.05 ± 0.18 kcal/mol; in series [2], 1.29 ± 0.043 kcal/mol; in series [3] it was 0.394 ± 0.18 kcal/mol.
“SAGGSAGGSAGGGSVTIRVESPEEAVATAKELLEKLTGAKPEATPLNVVVEEPDGVATVESAGGSAGGSAGG [r7_387_JUSTAS]”: the figures for the “folding stability dG unfold” value in series [1], in series [2] and in series [3] were 0.378 ± 0.13 kcal/mol, 1.03 ± 0.058 kcal/mol and -0.721 ± 0.18 kcal/mol, respectively.
Turning to “SAGGSAGGSAGGGSVVTTETSVSPNGVVTTTTTTTFLDPDGNPLGTTTTTTAHAAPPTTSAGGSAGGSAGGS [r10_403_JUSTAS]”, the “folding stability dG unfold” value in series [1] stood at 2.12 ± 0.024 kcal/mol; in series [2], 2.58 ± 0.076 kcal/mol; in series [3] it was 1.8 ± 0.031 kcal/mol.
On the same counts, the results for “SAGGSAGGSAGGGTVTLEIELKVKPGEKIKDLATGEEFEVKEGETVRIRITLPLPPAPEESAGGSAGGSAGG [r7_234_TrROS_Hall]” are 1.2 ± 0.17 kcal/mol, 0.963 ± 0.068 kcal/mol and 1.11 ± 0.078 kcal/mol.
Regarding “SAGGSAGGSAGGGVGIAEISFDPETQTVTIKAYNPETEEITEITIPVTNPLPLDLSDITSAGGSAGGSAGGS [r10_331_TrMRF]”, the “folding stability dG unfold” value in series [1] amounted to 0.725 ± 0.2 kcal/mol; in series [2], 0.477 ± 0.085 kcal/mol; in series [3], 0.858 ± 0.14 kcal/mol.
On the same counts, the results for “SAGGSAGGSAGGGVKYRVLLPKDVNPEKAAELLKPYGVKVVSIEEVEEGFYLIEVEKPESAGGSAGGSAGGS [r10_591_TrMRF]” are 1.49 ± 0.13 kcal/mol, 1.18 ± 0.032 kcal/mol and 1.59 ± 0.13 kcal/mol.
As to “SAGGSAGGSAGGGVTLPTGDIVVPVEYTTTVPVLTYNPTLGVSYFFTLTVTTSSTVYVGLSAGGSAGGSAGG [r7_374_JUSTAS]”, the “folding stability dG unfold” value in series [1] was 3.37 ± 0.082 kcal/mol; in series [2], 2.71 ± 0.057 kcal/mol; in series [3], 3.868 ± 0.026 kcal/mol.
As to “SAGGSAGGSAGGGWAEIEIKITIFVFDPGNMTLFMVTLEPRIEVPPVKRDPDNGKWKPDSAGGSAGGSAGGS [r10_815_TrROS]”, the entries for the “folding stability dG unfold” value in series [1], in series [2] and in series [3] were 3.81 ± 0.42 kcal/mol, 2.86 ± 0.23 kcal/mol and 3.92 ± 0.21 kcal/mol, respectively.
With “SAGGSAGGSAGGIEKFLEKHPELKIKKEIKIKIPYKTKDGKEFEVEYKIFYLTSEDEEDSAGGSAGGSAGGS [r10_0_TrMRF]”, the “folding stability dG unfold” value was 2.36 ± 0.07 kcal/mol in series [1], 1.39 ± 0.05 kcal/mol in series [2] and 2.74 ± 0.057 kcal/mol in series [3].
On the same counts, the results for “SAGGSAGGSAGGIGDDGKVRVALLDKNGKVLGPVYVTKVEEGKIEVEAEPDYTLVLNLESAGGSAGGSAGGS [r10_1257_TrMRF]” are 0.329 ± 0.15 kcal/mol, -0.0768 ± 0.11 kcal/mol and 0.487 ± 0.12 kcal/mol.
For “SAGGSAGGSAGGIIIPPGAKIVSIEKEGDFVKIKVYIPGSKKIETFKFPKGVPIIFEPEASAGGSAGGSAGG [r11_774_TrMRF]”, in that order: 3.41 ± 0.15 kcal/mol, 3.51 ± 0.28 kcal/mol and 3.24 ± 0.075 kcal/mol.
For “SAGGSAGGSAGGIKITPDIRELLRQQGKPFSEEEIQGIAKYIAKHFKEKGFEDVTIRIPWSAGGSAGGSAGG [r7_512_TrROS]”, in that order: 0.774 ± 0.14 kcal/mol, 0.471 ± 0.17 kcal/mol and 0.783 ± 0.2 kcal/mol.
